Source: US20130005646A1 (Novo Nordisk, published 2013)
One block for each binder: values may come before it. Starred links: 1 amine or outer side, 2 acyl side, 3 side chain; linkers in the order of their positions; H or OH if unused. Positions of bridges follow the written chain, without caps; N, C: chain ends. Groups on a side chain read outwards from the residue. No end group written: not given here. *: point of attachment. X1 = (S)‑4‑Carboxy‑4‑(19-carboxynonadecanoylamino)butyryl, O=C(O)CCCCCCCCCCCCCCCCCCC(=O)N[C@@H](CCC(=O)*)C(=O)O; C20 diacid = O=C(O)CCCCCCCCCCCCCCCCCCC(=O)*; γGlu = O=C(O)[C@H](CCC(=O)[*:2])N[*:1]; AEEA = NCCOCCOCC(=O)O

Columns and labels:
[1] = target: T1, human amylin 3(a) receptor (human calcitonin receptor + RAMP-3) (human, UniProt P30988 25-474; O60896 24-148); assay: cell-based or functional assay
T1 sequence (looked up) 1: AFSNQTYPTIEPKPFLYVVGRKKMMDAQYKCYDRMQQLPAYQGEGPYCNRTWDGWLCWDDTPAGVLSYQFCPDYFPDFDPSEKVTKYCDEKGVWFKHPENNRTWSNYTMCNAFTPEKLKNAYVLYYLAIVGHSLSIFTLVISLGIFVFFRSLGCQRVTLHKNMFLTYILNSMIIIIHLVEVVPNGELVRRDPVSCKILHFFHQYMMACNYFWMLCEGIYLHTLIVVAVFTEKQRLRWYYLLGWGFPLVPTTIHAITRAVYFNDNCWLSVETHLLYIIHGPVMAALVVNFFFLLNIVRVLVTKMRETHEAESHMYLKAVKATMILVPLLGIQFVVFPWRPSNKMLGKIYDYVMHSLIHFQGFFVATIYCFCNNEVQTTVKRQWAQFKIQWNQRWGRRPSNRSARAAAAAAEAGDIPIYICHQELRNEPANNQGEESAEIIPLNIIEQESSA
T1 sequence (looked up) 2: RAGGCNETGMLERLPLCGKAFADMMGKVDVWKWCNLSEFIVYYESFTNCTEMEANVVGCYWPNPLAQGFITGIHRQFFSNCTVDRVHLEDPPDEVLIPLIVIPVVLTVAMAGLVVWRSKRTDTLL

[2] = target: T2, human calcitonin (a) receptor (human, UniProt P30988 25-474); assay: cell-based or functional assay
T2 sequence (looked up): T1 sequence (looked up) 1

- Amylin receptor human EC50 [1]: 0.12 nM
- CTa receptor human EC50 [2]: 0.072 nM
B2: N-alpha-[(S)-4-Carboxy-4-(19-carboxynonadecanoylamino)butyryl]-[Gly1,Glu14,His17,Gln21,Gln35,Pro37]-pramlintide (peptide)
peptide: {C20 diacid-γGlu}-GCNTATCATQRLAEFLHHSSQNFGPILPPTNVGSQTP-NH2
modifications: disulfide 2-7
SMILES: CC[C@H](C)[C@H](NC(=O)[C@@H]1CCCN1C(=O)CNC(=O)[C@H](Cc1ccccc1)NC(=O)[C@H](CC(N)=O)NC(=O)[C@H](CCC(N)=O)NC(=O)[C@H](CO)NC(=O)[C@H](CO)NC(=O)[C@H](Cc1c[nH]cn1)NC(=O)[C@H](Cc1c[nH]cn1)NC(=O)[C@H](CC(C)C)NC(=O)[C@H](Cc1ccccc1)NC(=O)[C@H](CCC(=O)O)NC(=O)[C@H](C)NC(=O)[C@H](CC(C)C)NC(=O)[C@H](CCCNC(=N)N)NC(=O)[C@H](CCC(N)=O)NC(=O)[C@@H](NC(=O)[C@H](C)NC(=O)[C@@H]1CSSC[C@H](NC(=O)CNC(=O)CC[C@H](NC(=O)CCCCCCCCCCCCCCCCCCC(=O)O)C(=O)O)C(=O)N[C@@H](CC(N)=O)C(=O)N[C@@H]([C@@H](C)O)C(=O)N[C@@H](C)C(=O)N[C@@H]([C@@H](C)O)C(=O)N1)[C@@H](C)O)C(=O)N[C@@H](CC(C)C)C(=O)N1CCC[C@H]1C(=O)N1CCC[C@H]1C(=O)N[C@H](C(=O)N[C@@H](CC(N)=O)C(=O)N[C@H](C(=O)NCC(=O)N[C@@H](CO)C(=O)N[C@@H](CCC(N)=O)C(=O)N[C@H](C(=O)N1CCC[C@H]1C(N)=O)[C@@H](C)O)C(C)C)[C@@H](C)O

- Amylin receptor human EC50 [1]: 0.107 nM
- CTa receptor human EC50 [2]: 0.0585 nM
B3: N-alpha-[(S)-4-Carboxy-4-(19-carboxynonadecanoylamino)butyryl]-[Glu14,Gln21,Gln35,Pro37]-pramlintide (peptide)
peptide: {C20 diacid-γGlu}-KCNTATCATQRLAEFLVHSSQNFGPILPPTNVGSQTP-NH2
modifications: disulfide 2-7
SMILES: CC[C@H](C)[C@H](NC(=O)[C@@H]1CCCN1C(=O)CNC(=O)[C@H](Cc1ccccc1)NC(=O)[C@H](CC(N)=O)NC(=O)[C@H](CCC(N)=O)NC(=O)[C@H](CO)NC(=O)[C@H](CO)NC(=O)[C@H](Cc1c[nH]cn1)NC(=O)[C@@H](NC(=O)[C@H](CC(C)C)NC(=O)[C@H](Cc1ccccc1)NC(=O)[C@H](CCC(=O)O)NC(=O)[C@H](C)NC(=O)[C@H](CC(C)C)NC(=O)[C@H](CCCNC(=N)N)NC(=O)[C@H](CCC(N)=O)NC(=O)[C@@H](NC(=O)[C@H](C)NC(=O)[C@@H]1CSSC[C@H](NC(=O)[C@H](CCCCN)NC(=O)CC[C@H](NC(=O)CCCCCCCCCCCCCCCCCCC(=O)O)C(=O)O)C(=O)N[C@@H](CC(N)=O)C(=O)N[C@@H]([C@@H](C)O)C(=O)N[C@@H](C)C(=O)N[C@@H]([C@@H](C)O)C(=O)N1)[C@@H](C)O)C(C)C)C(=O)N[C@@H](CC(C)C)C(=O)N1CCC[C@H]1C(=O)N1CCC[C@H]1C(=O)N[C@H](C(=O)N[C@@H](CC(N)=O)C(=O)N[C@H](C(=O)NCC(=O)N[C@@H](CO)C(=O)N[C@@H](CCC(N)=O)C(=O)N[C@H](C(=O)N1CCC[C@H]1C(N)=O)[C@@H](C)O)C(C)C)[C@@H](C)O

- Amylin receptor human EC50 [1]: 0.091 nM
- CTa receptor human EC50 [2]: 0.045 nM
B4: N-alpha-[(S)-4-Carboxy-4-(19-carboxynonadecanoylamino)butyryl]-[Glu14,His17,Gln21,Gln35,Pro37]-pramlintide (peptide)
peptide: {C20 diacid-γGlu}-KCNTATCATQRLAEFLHHSSQNFGPILPPTNVGSQTP-NH2
modifications: disulfide 2-7
SMILES: CC[C@H](C)[C@H](NC(=O)[C@@H]1CCCN1C(=O)CNC(=O)[C@H](Cc1ccccc1)NC(=O)[C@H](CC(N)=O)NC(=O)[C@H](CCC(N)=O)NC(=O)[C@H](CO)NC(=O)[C@H](CO)NC(=O)[C@H](Cc1c[nH]cn1)NC(=O)[C@H](Cc1c[nH]cn1)NC(=O)[C@H](CC(C)C)NC(=O)[C@H](Cc1ccccc1)NC(=O)[C@H](CCC(=O)O)NC(=O)[C@H](C)NC(=O)[C@H](CC(C)C)NC(=O)[C@H](CCCNC(=N)N)NC(=O)[C@H](CCC(N)=O)NC(=O)[C@@H](NC(=O)[C@H](C)NC(=O)[C@@H]1CSSC[C@H](NC(=O)[C@H](CCCCN)NC(=O)CC[C@H](NC(=O)CCCCCCCCCCCCCCCCCCC(=O)O)C(=O)O)C(=O)N[C@@H](CC(N)=O)C(=O)N[C@@H]([C@@H](C)O)C(=O)N[C@@H](C)C(=O)N[C@@H]([C@@H](C)O)C(=O)N1)[C@@H](C)O)C(=O)N[C@@H](CC(C)C)C(=O)N1CCC[C@H]1C(=O)N1CCC[C@H]1C(=O)N[C@H](C(=O)N[C@@H](CC(N)=O)C(=O)N[C@H](C(=O)NCC(=O)N[C@@H](CO)C(=O)N[C@@H](CCC(N)=O)C(=O)N[C@H](C(=O)N1CCC[C@H]1C(N)=O)[C@@H](C)O)C(C)C)[C@@H](C)O

- Amylin receptor human EC50 [1]: 0.0415 nM
- CTa receptor human EC50 [2]: 0.022 nM
B5: N-alpha-[(S)-4-Carboxy-4-(19-carboxynonadecanoylamino)butyryl]-[His1,Glu14,Arg18,Pro37]-pramlintide (peptide)
peptide: X1-HCNTATCATQRLAEFLVRSSNNFGPILPPTNVGSNTP-NH2
modifications: disulfide 2-7
SMILES: CC[C@H](C)[C@H](NC(=O)[C@@H]1CCCN1C(=O)CNC(=O)[C@H](Cc1ccccc1)NC(=O)[C@H](CC(N)=O)NC(=O)[C@H](CC(N)=O)NC(=O)[C@H](CO)NC(=O)[C@H](CO)NC(=O)[C@H](CCCNC(=N)N)NC(=O)[C@@H](NC(=O)[C@H](CC(C)C)NC(=O)[C@H](Cc1ccccc1)NC(=O)[C@H](CCC(=O)O)NC(=O)[C@H](C)NC(=O)[C@H](CC(C)C)NC(=O)[C@H](CCCNC(=N)N)NC(=O)[C@H](CCC(N)=O)NC(=O)[C@@H](NC(=O)[C@H](C)NC(=O)[C@@H]1CSSC[C@H](NC(=O)[C@H](Cc2c[nH]cn2)NC(=O)CC[C@H](NC(=O)CCCCCCCCCCCCCCCCCCC(=O)O)C(=O)O)C(=O)N[C@@H](CC(N)=O)C(=O)N[C@@H]([C@@H](C)O)C(=O)N[C@@H](C)C(=O)N[C@@H]([C@@H](C)O)C(=O)N1)[C@@H](C)O)C(C)C)C(=O)N[C@@H](CC(C)C)C(=O)N1CCC[C@H]1C(=O)N1CCC[C@H]1C(=O)N[C@H](C(=O)N[C@@H](CC(N)=O)C(=O)N[C@H](C(=O)NCC(=O)N[C@@H](CO)C(=O)N[C@@H](CC(N)=O)C(=O)N[C@H](C(=O)N1CCC[C@H]1C(N)=O)[C@@H](C)O)C(C)C)[C@@H](C)O

- Amylin receptor human EC50 [1]: 0.103 nM
- CTa receptor human EC50 [2]: 0.097 nM
B6: N-alpha-[(S)-4-Carboxy-4-(19-carboxynonadecanoylamino)butyryl]-[Glu14,His17,Gln35,Pro37]-pramlintide (peptide)
peptide: {C20 diacid-γGlu}-KCNTATCATQRLAEFLHHSSNNFGPILPPTNVGSQTP-NH2
modifications: disulfide 2-7
SMILES: CC[C@H](C)[C@H](NC(=O)[C@@H]1CCCN1C(=O)CNC(=O)[C@H](Cc1ccccc1)NC(=O)[C@H](CC(N)=O)NC(=O)[C@H](CC(N)=O)NC(=O)[C@H](CO)NC(=O)[C@H](CO)NC(=O)[C@H](Cc1c[nH]cn1)NC(=O)[C@H](Cc1c[nH]cn1)NC(=O)[C@H](CC(C)C)NC(=O)[C@H](Cc1ccccc1)NC(=O)[C@H](CCC(=O)O)NC(=O)[C@H](C)NC(=O)[C@H](CC(C)C)NC(=O)[C@H](CCCNC(=N)N)NC(=O)[C@H](CCC(N)=O)NC(=O)[C@@H](NC(=O)[C@H](C)NC(=O)[C@@H]1CSSC[C@H](NC(=O)[C@H](CCCCN)NC(=O)CC[C@H](NC(=O)CCCCCCCCCCCCCCCCCCC(=O)O)C(=O)O)C(=O)N[C@@H](CC(N)=O)C(=O)N[C@@H]([C@@H](C)O)C(=O)N[C@@H](C)C(=O)N[C@@H]([C@@H](C)O)C(=O)N1)[C@@H](C)O)C(=O)N[C@@H](CC(C)C)C(=O)N1CCC[C@H]1C(=O)N1CCC[C@H]1C(=O)N[C@H](C(=O)N[C@@H](CC(N)=O)C(=O)N[C@H](C(=O)NCC(=O)N[C@@H](CO)C(=O)N[C@@H](CCC(N)=O)C(=O)N[C@H](C(=O)N1CCC[C@H]1C(N)=O)[C@@H](C)O)C(C)C)[C@@H](C)O

Further lines, the binder ahead of its results:

B1: N-alpha-[(S)-4-Carboxy-4-(19-carboxynonadecanoylamino)butyryl]-[Glu1,Glu14,Gln21,Gln35,Pro37]-pramlintide (peptide)
peptide: {C20 diacid-γGlu}-ECNTATCATQRLAEFLVHSSQNFGPILPPTNVGSQTP-NH2
modifications: disulfide 2-7
SMILES: CC[C@H](C)[C@H](NC(=O)[C@@H]1CCCN1C(=O)CNC(=O)[C@H](Cc1ccccc1)NC(=O)[C@H](CC(N)=O)NC(=O)[C@H](CCC(N)=O)NC(=O)[C@H](CO)NC(=O)[C@H](CO)NC(=O)[C@H](Cc1c[nH]cn1)NC(=O)[C@@H](NC(=O)[C@H](CC(C)C)NC(=O)[C@H](Cc1ccccc1)NC(=O)[C@H](CCC(=O)O)NC(=O)[C@H](C)NC(=O)[C@H](CC(C)C)NC(=O)[C@H](CCCNC(=N)N)NC(=O)[C@H](CCC(N)=O)NC(=O)[C@@H](NC(=O)[C@H](C)NC(=O)[C@@H]1CSSC[C@H](NC(=O)[C@H](CCC(=O)O)NC(=O)CC[C@H](NC(=O)CCCCCCCCCCCCCCCCCCC(=O)O)C(=O)O)C(=O)N[C@@H](CC(N)=O)C(=O)N[C@@H]([C@@H](C)O)C(=O)N[C@@H](C)C(=O)N[C@@H]([C@@H](C)O)C(=O)N1)[C@@H](C)O)C(C)C)C(=O)N[C@@H](CC(C)C)C(=O)N1CCC[C@H]1C(=O)N1CCC[C@H]1C(=O)N[C@H](C(=O)N[C@@H](CC(N)=O)C(=O)N[C@H](C(=O)NCC(=O)N[C@@H](CO)C(=O)N[C@@H](CCC(N)=O)C(=O)N[C@H](C(=O)N1CCC[C@H]1C(N)=O)[C@@H](C)O)C(C)C)[C@@H](C)O
- Amylin receptor human EC50 [1]: 1.51 nM
- CTa receptor human EC50 [2]: 0.496 nM

Binder: KCNTATCATQRLANFLHHSSNNFGK([AEEA-AEEA-γGlu-19‑carboxyheptadecanoyl])ILSSTNVGSHTY-NH2 (disulfide 2-7)
- Amylin receptor human EC50 [1]: 0.199 nM
- CTa receptor human EC50 [2]: 0.114 nM

Binder: KCNTATCATQRLAEFLHHSSNNFGK([AEEA-AEEA-γGlu-19‑carboxyheptadecanoyl])ILSSTNVGSHTY-NH2 (disulfide 2-7)
- Amylin receptor human EC50 [1]: 0.301 nM
- CTa receptor human EC50 [2]: 0.111 nM

Binder: KCNTATCATQRLANFLHHSSK([AEEA-AEEA-γGlu-19‑carboxyheptadecanoyl])NFGPILSPTNVGSHTY-NH2 (disulfide 2-7)
- Amylin receptor human EC50 [1]: 0.482 nM
- CTa receptor human EC50 [2]: 0.889 nM
